Assay results from article PMC6639331.

Columns and labels:
[1] = target: NOT1:NOT2:NOT3:CAF40 subcomplex (full-length subunits) (human) (UniProt A5YKK6); experiment: SEC-MALS; reconstituted CCR4-NOT FULL, 40 ul at 0.9 mg/ml, Superose 6 5/150 in 10 mM HEPES/NaOH pH 7.5, 200 mM NaCl; SDS-PAGE with Coomassie staining of the complex
[2] = target: CCR4a, full length (human) (human) (UniProt Q9ULM6); experiment: co-purification (metal affinity, SEC, anion exchange); CCR4a and CAF1 co-expressed in E. coli; nickel IMAC, tags cleaved by TEV, Superdex 200 in 10 mM HEPES/NaOH pH 7.5, 300 mM NaCl, 2 mM DTT, then Source 15Q
Sequence of CCR4a, full length (human) (human) (Q9ULM6 whole entry): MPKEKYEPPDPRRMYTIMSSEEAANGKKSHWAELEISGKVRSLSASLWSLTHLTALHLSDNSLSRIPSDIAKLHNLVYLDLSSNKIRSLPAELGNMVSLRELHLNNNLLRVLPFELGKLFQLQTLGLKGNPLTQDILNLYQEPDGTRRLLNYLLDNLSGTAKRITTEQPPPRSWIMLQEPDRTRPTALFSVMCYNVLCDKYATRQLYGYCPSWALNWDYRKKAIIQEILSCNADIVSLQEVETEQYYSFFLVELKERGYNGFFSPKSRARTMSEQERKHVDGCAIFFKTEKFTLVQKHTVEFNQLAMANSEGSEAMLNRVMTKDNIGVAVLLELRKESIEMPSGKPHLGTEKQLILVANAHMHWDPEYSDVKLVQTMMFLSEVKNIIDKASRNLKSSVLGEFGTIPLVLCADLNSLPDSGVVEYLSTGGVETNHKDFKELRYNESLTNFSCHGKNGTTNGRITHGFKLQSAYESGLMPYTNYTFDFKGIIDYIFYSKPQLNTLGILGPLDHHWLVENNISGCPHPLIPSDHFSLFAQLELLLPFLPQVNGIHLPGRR

Sequence of NOT1:NOT2:NOT3:CAF40 subcomplex (full-length subunits) (human) (A5YKK6 whole entry, chain 1 of 4): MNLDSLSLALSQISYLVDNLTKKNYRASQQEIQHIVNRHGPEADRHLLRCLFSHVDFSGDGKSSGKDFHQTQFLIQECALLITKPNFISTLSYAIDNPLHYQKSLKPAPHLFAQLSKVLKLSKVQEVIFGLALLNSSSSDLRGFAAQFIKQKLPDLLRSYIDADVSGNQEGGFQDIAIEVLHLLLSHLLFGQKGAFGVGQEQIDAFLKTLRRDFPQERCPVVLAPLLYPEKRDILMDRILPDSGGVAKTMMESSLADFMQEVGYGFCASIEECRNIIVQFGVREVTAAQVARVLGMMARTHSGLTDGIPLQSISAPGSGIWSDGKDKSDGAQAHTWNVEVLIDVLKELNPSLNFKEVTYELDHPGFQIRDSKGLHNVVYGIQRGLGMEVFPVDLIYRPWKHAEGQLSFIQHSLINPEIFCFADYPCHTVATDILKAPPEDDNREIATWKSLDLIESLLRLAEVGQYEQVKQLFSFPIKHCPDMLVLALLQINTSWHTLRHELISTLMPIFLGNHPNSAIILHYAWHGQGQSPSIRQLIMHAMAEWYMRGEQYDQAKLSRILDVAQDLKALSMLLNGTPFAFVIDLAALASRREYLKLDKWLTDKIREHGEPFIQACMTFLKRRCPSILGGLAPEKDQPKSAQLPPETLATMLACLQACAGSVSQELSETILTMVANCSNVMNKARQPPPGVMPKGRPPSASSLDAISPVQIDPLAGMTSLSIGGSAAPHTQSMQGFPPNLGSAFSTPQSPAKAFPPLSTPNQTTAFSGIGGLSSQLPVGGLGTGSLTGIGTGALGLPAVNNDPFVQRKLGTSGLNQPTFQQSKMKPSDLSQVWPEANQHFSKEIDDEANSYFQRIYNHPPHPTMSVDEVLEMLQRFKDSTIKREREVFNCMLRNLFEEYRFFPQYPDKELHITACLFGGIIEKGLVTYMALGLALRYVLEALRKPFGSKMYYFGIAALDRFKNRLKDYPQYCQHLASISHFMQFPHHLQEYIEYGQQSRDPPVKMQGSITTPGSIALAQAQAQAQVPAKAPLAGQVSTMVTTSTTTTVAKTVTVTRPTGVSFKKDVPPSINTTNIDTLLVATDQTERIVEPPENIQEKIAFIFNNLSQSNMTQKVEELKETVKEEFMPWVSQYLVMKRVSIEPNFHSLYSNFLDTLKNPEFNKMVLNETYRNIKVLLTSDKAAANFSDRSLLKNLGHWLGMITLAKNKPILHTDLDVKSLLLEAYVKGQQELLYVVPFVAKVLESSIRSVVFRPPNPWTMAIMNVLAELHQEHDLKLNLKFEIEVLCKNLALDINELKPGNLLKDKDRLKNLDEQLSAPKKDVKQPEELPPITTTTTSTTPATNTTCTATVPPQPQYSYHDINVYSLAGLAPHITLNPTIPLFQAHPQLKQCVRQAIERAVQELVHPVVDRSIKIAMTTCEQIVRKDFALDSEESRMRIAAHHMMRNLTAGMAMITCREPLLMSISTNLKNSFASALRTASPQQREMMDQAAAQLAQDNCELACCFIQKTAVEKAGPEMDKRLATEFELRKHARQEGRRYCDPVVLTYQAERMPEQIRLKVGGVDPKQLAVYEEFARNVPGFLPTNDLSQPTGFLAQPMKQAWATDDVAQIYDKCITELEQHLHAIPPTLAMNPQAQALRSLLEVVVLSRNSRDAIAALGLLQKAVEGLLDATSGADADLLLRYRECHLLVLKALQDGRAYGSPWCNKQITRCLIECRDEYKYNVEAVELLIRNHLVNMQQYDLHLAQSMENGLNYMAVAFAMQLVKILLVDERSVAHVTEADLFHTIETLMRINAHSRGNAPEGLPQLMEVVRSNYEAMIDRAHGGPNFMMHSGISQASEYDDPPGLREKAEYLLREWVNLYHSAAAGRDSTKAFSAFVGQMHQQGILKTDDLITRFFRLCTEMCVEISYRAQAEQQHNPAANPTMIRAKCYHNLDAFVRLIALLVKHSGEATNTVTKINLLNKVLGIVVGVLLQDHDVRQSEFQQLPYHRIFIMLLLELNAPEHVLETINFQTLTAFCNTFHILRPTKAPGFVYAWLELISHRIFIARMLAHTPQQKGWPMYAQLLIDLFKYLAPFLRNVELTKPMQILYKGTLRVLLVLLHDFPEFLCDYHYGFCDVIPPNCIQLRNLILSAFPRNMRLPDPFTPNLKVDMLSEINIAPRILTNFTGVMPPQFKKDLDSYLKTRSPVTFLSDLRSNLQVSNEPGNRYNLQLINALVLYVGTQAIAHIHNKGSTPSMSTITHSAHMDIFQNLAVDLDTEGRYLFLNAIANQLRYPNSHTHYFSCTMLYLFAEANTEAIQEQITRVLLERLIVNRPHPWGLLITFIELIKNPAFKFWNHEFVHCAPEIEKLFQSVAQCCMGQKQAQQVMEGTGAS
Sequence of NOT1:NOT2:NOT3:CAF40 subcomplex (full-length subunits) (human) (Q9NZN8 whole entry, chain 2 of 4, further chain): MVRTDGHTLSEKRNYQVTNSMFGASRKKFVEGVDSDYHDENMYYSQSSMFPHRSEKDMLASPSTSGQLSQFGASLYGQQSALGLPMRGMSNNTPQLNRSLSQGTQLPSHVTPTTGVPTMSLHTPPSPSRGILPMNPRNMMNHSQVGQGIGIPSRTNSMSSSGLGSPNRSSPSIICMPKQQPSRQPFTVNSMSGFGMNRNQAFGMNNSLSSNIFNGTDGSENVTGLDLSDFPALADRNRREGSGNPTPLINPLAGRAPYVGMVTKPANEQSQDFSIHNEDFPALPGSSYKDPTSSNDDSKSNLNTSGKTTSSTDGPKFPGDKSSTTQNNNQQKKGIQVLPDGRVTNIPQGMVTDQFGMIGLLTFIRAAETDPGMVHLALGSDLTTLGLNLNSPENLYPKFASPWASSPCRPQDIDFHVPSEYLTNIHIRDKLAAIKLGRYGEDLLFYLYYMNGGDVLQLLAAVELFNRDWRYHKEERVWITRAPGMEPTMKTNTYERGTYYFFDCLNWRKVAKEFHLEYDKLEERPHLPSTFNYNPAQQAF
Sequence of NOT1:NOT2:NOT3:CAF40 subcomplex (full-length subunits) (human) (O75175 whole entry, chain 3 of 4, further chain): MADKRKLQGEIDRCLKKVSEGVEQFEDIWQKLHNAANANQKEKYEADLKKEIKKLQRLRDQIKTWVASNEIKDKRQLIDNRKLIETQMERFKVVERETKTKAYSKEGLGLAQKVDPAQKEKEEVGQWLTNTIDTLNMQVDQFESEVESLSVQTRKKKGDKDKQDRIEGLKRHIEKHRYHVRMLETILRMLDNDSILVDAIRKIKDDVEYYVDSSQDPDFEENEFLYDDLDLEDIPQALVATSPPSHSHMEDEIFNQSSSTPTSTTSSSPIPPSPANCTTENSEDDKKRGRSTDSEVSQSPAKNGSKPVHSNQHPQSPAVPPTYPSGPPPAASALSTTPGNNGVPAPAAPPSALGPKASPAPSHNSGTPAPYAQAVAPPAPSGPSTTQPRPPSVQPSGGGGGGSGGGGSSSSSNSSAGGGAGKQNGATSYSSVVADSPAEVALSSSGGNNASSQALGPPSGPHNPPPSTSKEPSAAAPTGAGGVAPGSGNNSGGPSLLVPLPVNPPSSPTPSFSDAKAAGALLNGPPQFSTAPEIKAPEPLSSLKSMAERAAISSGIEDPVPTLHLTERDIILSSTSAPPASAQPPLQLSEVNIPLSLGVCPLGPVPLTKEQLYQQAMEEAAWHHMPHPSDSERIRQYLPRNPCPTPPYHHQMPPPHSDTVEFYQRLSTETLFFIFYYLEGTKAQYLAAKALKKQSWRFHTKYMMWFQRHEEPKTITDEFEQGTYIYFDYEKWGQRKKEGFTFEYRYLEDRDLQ
Sequence of NOT1:NOT2:NOT3:CAF40 subcomplex (full-length subunits) (human) (Q92600 whole entry, chain 4 of 4, further chain): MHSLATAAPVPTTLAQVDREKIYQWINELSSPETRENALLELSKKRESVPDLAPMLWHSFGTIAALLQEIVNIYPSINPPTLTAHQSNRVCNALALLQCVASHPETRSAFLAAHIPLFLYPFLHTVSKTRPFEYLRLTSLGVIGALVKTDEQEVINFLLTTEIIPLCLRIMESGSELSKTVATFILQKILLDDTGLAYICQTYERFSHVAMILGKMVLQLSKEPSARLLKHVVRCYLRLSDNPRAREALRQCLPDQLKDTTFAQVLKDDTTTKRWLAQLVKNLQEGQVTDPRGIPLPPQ
Sequence of CAF1, full length (human) (Q9UIV1 whole entry): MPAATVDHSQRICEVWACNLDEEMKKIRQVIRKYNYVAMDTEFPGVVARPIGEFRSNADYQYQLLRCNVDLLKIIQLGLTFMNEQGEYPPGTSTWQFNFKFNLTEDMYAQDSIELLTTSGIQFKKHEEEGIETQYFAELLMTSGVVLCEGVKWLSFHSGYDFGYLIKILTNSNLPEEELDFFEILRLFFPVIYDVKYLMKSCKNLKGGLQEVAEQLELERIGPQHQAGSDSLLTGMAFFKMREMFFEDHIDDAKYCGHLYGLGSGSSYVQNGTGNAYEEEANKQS

Substance	stoichiometry N [1]	stoichiometry N [2]
CCR4a:CAF1 exonuclease heterodimer (wild type) (from UniProt Q9ULM6 1-557; Q9UIV1 1-285) (complex)	1	
CAF1, full length (human) (from UniProt Q9UIV1 1-285) (enzyme)		1
